Assay results reported in US12365732.

Legend:
[1] = target: human CD96 on primary human immune cells (PBMCs, NK cells, CD4+ T cells) (human) (UniProt P40200); test: FACS, Ab 80 nM
[2] = target: human CD96 on primary human immune cells (PBMCs, NK cells, CD4+ T cells) (human) (UniProt P40200); test: FACS, Ab 0.64 nM
[3] = target: human CD96 on primary human immune cells (PBMCs, NK cells, CD4+ T cells) (human) (UniProt P40200); test: FACS, Ab 16 nM
[4] = target: human CD96 on primary human immune cells (PBMCs, NK cells, CD4+ T cells) (human) (UniProt P40200); test: cell-based or functional assay
[5] = target: human CD96 on primary human immune cells (PBMCs, NK cells, CD4+ T cells) (human) (UniProt P40200); test: FACS, Ab 3.2 nM
[6] = target: human CD96 on primary human immune cells (PBMCs, NK cells, CD4+ T cells) (human) (UniProt P40200); test: FACS, Ab 0.00512 nM
[7] = target: human CD96 on primary human immune cells (PBMCs, NK cells, CD4+ T cells) (human) (UniProt P40200); test: FACS, Ab 0.128 nM
[8] = target: human CD96 on primary human immune cells (PBMCs, NK cells, CD4+ T cells) (human) (UniProt P40200); test: FACS, % positive curve
[9] = target: human CD96 on primary human immune cells (PBMCs, NK cells, CD4+ T cells) (human) (UniProt P40200); test: FACS, Ab 0.0256 nM

Binder	% positive [1]	% positive [2]	% positive [3]	Human NK cell IFNγ secretion (fold over background), Ab 0.0032 nM [4]	Human NK cell IFNγ secretion (fold over background), Ab 0.016 nM [4]	Human NK cell IFNγ secretion (fold over background), Ab 0.08 nM [4]	Human NK cell IFNγ secretion (fold over background), Ab 0.4 nM [4]	Human NK cell IFNγ secretion (fold over background), Ab 2 nM [4]	Human NK cell IFNγ secretion (fold over background), Ab 10 nM [4]	Human NK cell IFNγ secretion (fold over background), Ab 50 nM [4]	Human NK cell IFNγ secretion (fold over background), Ab 250 nM [4]	Human NK cell IFNγ secretion, EC50 [4]	% positive [5]	% positive [6]	% positive [7]	EC50 [8]	% positive [9]
h10G1 IgG (humanized 10G1) (antibody, V domains shown) VH: EIQLVQSGSELKKPGASVKVSCKASGYPFTTYGMSWVRQAPGQGLEWMGWINTDSGVPTYADDFKGRFVFSLDTSVSTAYLQISSLKAEDTAVYFCARNIYYGWGNFDYWGQGTLVTVSS VL: EIVMTQSPDFQSVTPKEKVTITCRASQDIYRNLHWYQQKPDQTPKLLIKHASDSISGIPSRFSGSGSGTDFTLTINSLEAEDAAAYYCLQGYSMPYTFGGGTKVEIKG	88.7%	53.5%	81.4%	1 fold	1.13 fold	1.38 fold	1.96 fold	2.08 fold	2.19 fold	2.21 fold	1.87 fold	0.112 nM	64.4%	5.4%	39.1%	0.28 nM	14.6%
mAb1.v7.NGS10 IgG (antibody, V domains shown) VH: EVQLVQSGAEVKKPGASVKVSCKASGFTFTNNFMHWVRQAPGQGLEWIGFIHANSGITNINEKFKNRVTMTTDTSTSTAYMELRSLRSEDTAVYYCRSDGIYEGYFDYWGQGTLVTVSS VL: DIQLTQSPSSLSASVGDRVTITCKASQNVGTAIVWYQQKPGKAPKVLIYSASTRYTGVPSRFSGSGSGTDFTLTISSLQPEDFATYYCQQYSSSPLTFGQGTKVEIKG	97.7%	88.8%	97.1%	1 fold	1.24 fold	1.36 fold	1.81 fold	2.12 fold	1.94 fold	2.05 fold	1.87 fold	0.084 nM	93.8%	6.1%	66.7%	0.069 nM	16.9%
mAb1.v7.NGS11 IgG (antibody, V domains shown) VH: EVQLVQSGAEVKKPGASVKVSCKASGFTFTNNFMHWVRQAPGQGLEWIGFIHANSGITNINEKFKNRVTMTTDTSTSTAYMELRSLRSEDTAVYYCRSDGVYEGYFDYWGQGTLVTVSS VL: DIQLTQSPSSLSASVGDRVTITCKASQNVGTAIVWYQQKPGKAPKVLIYSASTRYTGVPSRFSGSGSGTDFTLTISSLQPEDFATYYCQQYSSSPLTFGQGTKVEIKG	97.2%	89.7%	96.7%										94.2%	5.4%	61.1%	0.083 nM	11.6%

More lines, in order of falling EC50 [8], values ahead:

% positive [1]	% positive [2]	% positive [3]	Human NK cell IFNγ secretion (fold over background), Ab 0.0032 nM [4]	Human NK cell IFNγ secretion (fold over background), Ab 0.016 nM [4]	Human NK cell IFNγ secretion (fold over background), Ab 0.08 nM [4]	Human NK cell IFNγ secretion (fold over background), Ab 0.4 nM [4]	Human NK cell IFNγ secretion (fold over background), Ab 2 nM [4]	Human NK cell IFNγ secretion (fold over background), Ab 10 nM [4]	Human NK cell IFNγ secretion (fold over background), Ab 50 nM [4]	Human NK cell IFNγ secretion (fold over background), Ab 250 nM [4]	Human NK cell IFNγ secretion, EC50 [4]	% positive [5]	% positive [6]	% positive [7]	EC50 [8]	% positive [9]	Binder
97.8%	89.3%	96.2%										92.3%	8.6%	64.2%	0.072 nM	22%	mAb1.v7.NGS8 IgG (antibody, V domains shown) VH: EVQLVQSGAEVKKPGASVKVSCKASGFTFTNNFMHWVRQAPGQGLEWIGMIHANSGITNINEKFKNRVTMTTDTSTSTAYMELRSLRSEDTAVYYCRSDGIYEGYFDYWGQGTLVTVSS VL: DIQLTQSPSSLSASVGDRVTITCKASQNVGTAIVWYQQKPGKAPKVLIYSASTRYTGVPSRFSGSGSGTDFTLTISSLQPEDFATYYCQQYSSSPLTFGQGTKVEIKG
97.8%	90.8%	97.1%										95.1%	8.2%	64.7%	0.071 nM	22.5%	mAb1.v7.NGS9 IgG (antibody, V domains shown) VH: EVQLVQSGAEVKKPGASVKVSCKASGFTFTNNFMHWVRQAPGQGLEWIGMIHANSGITNINEKFKNRVTMTTDTSTSTAYMELRSLRSEDTAVYYCRSDGVYEGYFDYWGQGTLVTVSS VL: DIQLTQSPSSLSASVGDRVTITCKASQNVGTAIVWYQQKPGKAPKVLIYSASTRYTGVPSRFSGSGSGTDFTLTISSLQPEDFATYYCQQYSSSPLTFGQGTKVEIKG
